Test results published in PMC11432006, “Functional Divergence in the Affinity and Stability of Non-Canonical Cysteines and Non-Canonical Disulfide Bonds: Insights from a VHH and VNAR Study” (International Journal of Molecular Sciences, 2024).

Target: T1, GFP-BC2-tag (Homo sapiens (beta-catenin-derived …, UniProt P35222))
T1 construct: also called BC2 peptide
T1 chain: PDRKAAVSHWQQ
Assay: SPR; Biacore 8k; antigen (lysozyme or GFP-BC2-tag) amine-coupled to a CM5 chip, single-domain antibody flowed over at 30 µL/min; running buffer 137 mM NaCl, 2.7 mM KCl, 10 mM Na2HPO4, 1.8 mM KH2PO4 pH 7.5, room temperature; 1:1 Langmuir model
Details: both partners purified

B1: BC2-Nb_(C55A_C110S) (VHH)
VHH: QVQLVESGGGLVQPGGSLTLSCTASGFTLDHYDIGWFRQAPGKEREGVSAINNSDDDTYYADSVKGRFTIFMNNAKDTVYLQMNSLKPEDTAIYYCAEARGSKRGRYEYDFWGQGTQVTVSS
notes: also called BC2-Nb mutant
- binding result: no binding (tested: 5000 nM)
